Experimental data published in PMC4148139 (Biochemistry, 2014).

Target: T1, FADD DD (death domain of Fas-associated protein with death domain, residues 93-184), His-tagged (UniProt Q13158 93-184)
T1 sequence (looked up): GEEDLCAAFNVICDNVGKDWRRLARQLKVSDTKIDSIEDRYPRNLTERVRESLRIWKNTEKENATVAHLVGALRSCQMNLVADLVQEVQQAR
Experiment: SEC-MALS

B1: RIP1 DD (death domain of receptor interaction protein kinase 1, residues 583-664), His-tagged (domain or fragment, UniProt Q13546 583-664, looked up)
chain: TDKHLDPIRENLGKHWKNCARKLGFTQSQIDEIDHDYERDGLKEKVYQMLQKWVMREGIKGATVGKLAQALHQCSRIDLLSS
- stoichiometry N: ~1 RIP1 DD per FADD DD (5:5)

B2: GST-tagged RIP1 DD (domain or fragment, UniProt Q13546 583-664, looked up)
chain: B1 chain
- stoichiometry N: 1 GST-RIP1 DD per FADD DD (5:5)
